In publication PMC11091055 (Signal Transduction and Targeted Therapy, 2024):
Numbering of substitutions follows the chain as printed.

What was measured:
Test in all cases: SPR
Conditions in all cases: both partners purified
[1] = target: T1, SARS-CoV-2 Omicron BA.1 S NTD, human Fc-tagged (SARS-CoV-2 Omicron BA.1, strain)
T1 construct: also called BA.1 NTD

[2] = target: T2, SARS-CoV-2 Omicron BA.2 S NTD, human Fc-tagged (SARS-CoV-2 Omicron BA.2, strain)
T2 construct: also called BA.2 NTD
T2 chain: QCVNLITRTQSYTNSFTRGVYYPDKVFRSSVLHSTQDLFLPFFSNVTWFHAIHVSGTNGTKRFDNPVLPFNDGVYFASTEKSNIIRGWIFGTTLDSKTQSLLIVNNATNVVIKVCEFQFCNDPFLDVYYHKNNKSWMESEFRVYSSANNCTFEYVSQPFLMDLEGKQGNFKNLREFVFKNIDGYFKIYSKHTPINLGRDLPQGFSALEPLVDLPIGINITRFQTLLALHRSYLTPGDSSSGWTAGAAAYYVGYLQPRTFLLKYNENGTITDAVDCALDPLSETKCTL

[3] = target: T3, SARS-CoV-2 Omicron BA.5 S NTD, human Fc-tagged (SARS-CoV-2 Omicron BA.5, strain)
T3 construct: also called BA.5 NTD
T3 chain: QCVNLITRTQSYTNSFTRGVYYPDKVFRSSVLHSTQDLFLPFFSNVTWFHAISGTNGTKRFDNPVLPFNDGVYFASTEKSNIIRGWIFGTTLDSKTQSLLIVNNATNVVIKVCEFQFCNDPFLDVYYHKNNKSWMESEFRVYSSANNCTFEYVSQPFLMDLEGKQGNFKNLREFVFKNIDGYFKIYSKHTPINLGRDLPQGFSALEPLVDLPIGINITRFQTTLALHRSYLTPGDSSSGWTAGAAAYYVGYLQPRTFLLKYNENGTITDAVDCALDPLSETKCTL

[4] = target: T4, SARS-CoV-2 Omicron BA.2.86 S NTD, human Fc-tagged (SARS-CoV-2 Omicron BA.2.86, strain)
T4 construct: also called BA.2.86 NTD
T4 chain: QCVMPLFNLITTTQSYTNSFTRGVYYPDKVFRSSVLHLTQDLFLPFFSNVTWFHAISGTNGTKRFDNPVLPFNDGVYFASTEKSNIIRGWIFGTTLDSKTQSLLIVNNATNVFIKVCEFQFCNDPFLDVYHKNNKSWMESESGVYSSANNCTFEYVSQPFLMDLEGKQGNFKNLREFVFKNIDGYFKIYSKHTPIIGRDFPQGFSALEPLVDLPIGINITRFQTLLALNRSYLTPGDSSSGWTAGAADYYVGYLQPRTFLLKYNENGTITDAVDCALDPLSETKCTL

[5] = target: T5, SARS-CoV-2 Omicron EG.5.1 S NTD, human Fc-tagged (SARS-CoV-2 Omicron EG.5.1, strain)
T5 construct: also called EG.5.1 NTD
T5 chain: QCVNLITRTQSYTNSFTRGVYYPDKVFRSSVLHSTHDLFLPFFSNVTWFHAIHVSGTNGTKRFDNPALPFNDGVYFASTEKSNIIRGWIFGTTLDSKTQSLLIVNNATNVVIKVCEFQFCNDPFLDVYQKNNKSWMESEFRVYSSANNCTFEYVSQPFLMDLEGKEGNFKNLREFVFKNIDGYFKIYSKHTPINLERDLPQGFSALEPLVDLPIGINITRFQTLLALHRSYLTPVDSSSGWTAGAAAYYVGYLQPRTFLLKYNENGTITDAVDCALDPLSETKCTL

[6] = target: T6, SARS-CoV-2 Delta S NTD, human Fc-tagged (SARS-CoV-2 Delta (B.1.617.2), strain)
T6 construct: also called Delta NTD

[7] = target: T7, SARS-CoV-2 Omicron BA.2.75 S NTD, human Fc-tagged (SARS-CoV-2 Omicron BA.2.75, strain)
T7 construct: also called BA.2.75 NTD
T7 chain: T2 chain with K131E, W136R, F141L, I194V, G241S

[8] = target: T8, SARS-CoV-2 Omicron XBB.1.5 S NTD, human Fc-tagged (SARS-CoV-2 Omicron XBB.1.5, strain)
T8 construct: also called XBB.1.5 NTD
T8 chain: T5 chain with H36Q, V235G

[9] = target: T9, SARS-CoV-2 Omicron XBB.1.16 S NTD, human Fc-tagged (SARS-CoV-2 Omicron XBB.1.16, strain)
T9 construct: also called XBB.1.16 NTD
T9 chain: T5 chain with H36Q, E163V

[10] = target: T10, SARS-CoV-2 Omicron JN.1 S NTD, human Fc-tagged (SARS-CoV-2 Omicron JN.1, strain)
T10 construct: also called JN.1 NTD
T10 chain: T4 chain

[11] = target: T11, SARS-CoV-2 Lambda S NTD, human Fc-tagged (SARS-CoV-2 Lambda (C.37), strain)
T11 construct: also called Lambda NTD
T11 chain: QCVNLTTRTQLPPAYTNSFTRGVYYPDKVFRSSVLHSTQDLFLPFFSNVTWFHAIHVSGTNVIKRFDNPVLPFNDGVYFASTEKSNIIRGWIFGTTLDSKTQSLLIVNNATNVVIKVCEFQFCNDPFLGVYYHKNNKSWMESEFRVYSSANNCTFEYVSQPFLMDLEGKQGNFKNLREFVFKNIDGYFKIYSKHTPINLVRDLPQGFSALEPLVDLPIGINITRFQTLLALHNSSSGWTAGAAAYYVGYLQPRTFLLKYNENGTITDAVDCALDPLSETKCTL

[12] = target: T12, SARS-CoV-2 Omicron XBB S NTD, human Fc-tagged (SARS-CoV-2 Omicron XBB, strain)
T12 construct: also called XBB NTD
T12 chain: T5 chain with H36Q, A67V, V235G

[13] = target: T13, SARS-CoV-2 Omicron BA.2.3.20 S NTD, human Fc-tagged (SARS-CoV-2 Omicron BA.2.3.20, strain)
T13 construct: also called BA.2.3.20 NTD
T13 chain: T2 chain

[14] = target: T14, SARS-CoV-2 Omicron BA.3 S NTD, human Fc-tagged (SARS-CoV-2 Omicron BA.3, strain)
T14 construct: also called BA.3 NTD

Measured: Kd

B1: nanobody N235, His-tagged (VHH)
VHH: QVQLQESGGGLVQPGGSLRLSCAASGLIISRYDMSWYRQAPGKERELVATTPIPAARPQYADSVKGRFTISRDNAKNTVSLQMNSLKPEDTAVYYCNLGPESQDHNYNYWGQGTQVTVSS
< 0.2 nM: all assays above
